Source: the DeepSol protein solubility set

assay: soluble on expression in E. coli; label from the status in PepcDB or PDB records

Sequence	soluble on expression in E. coli
MAHPPRLNDDKPVIWTVSVTRLFELFRDISLEFDHLANITPIQLGFEKAVTYIRKKLANERCDAIIAAGSNGAYLKSRLSVPVILIKPSGYDVLQALAKAGKLTSSIGVVTYQETIPALVAFQKTFNLRLDQRSYITEEDARGQINELKANGTEAVVGAGLITDLAEEAGMTGIFIYSAATVRQAFSDALDMTRMSLRHNTHDATRNALRTRYVLGDMLGQSPQMEQVRQTILLYARSSAAVLIEGETGTGKELAAQAIHREYFARHDARQGKKSHPFVAVNCGAIAESLLEAELFGYEEGAFTGSRRGGRAGLFEIAHGGTLFLDEIGEMPLPLQTRLLRVLEEKEVTRVGGHQPVPVDVRVISATHCNLEEDMQQGRFRRDLFYRLSILRLQLPPLRERVADILPLAESFLKVSLAALSAPFSAALRQGLQASETVLLHYDWPGNIRELRNMMERLALFLSVEPTPDLTPQFMQLLLPELARESAKTPAPRLLTPQQALEKFNGDKTAAANYLGISRTTFWRRLKS	not soluble
MLVNTKAKVGVFSIALGAYLPQFPSLVPEFEAQYEAFKKTIPDTVEIIDGGMVTTKEQSMVAGDKFRAADVDIVFLQMLTYATSYNMLPAIRDLDVPVVLVNVQKLKALDYDHTDIAAWLGEGYACGAVGEAVADLERAGKRHAVITGVVEGGDPAVQAEIEDWCKAAQVRRRFRDTNIAQIGRPYPGMMDLYIDETNLYNRMFLYTKQFDWEKMWAIADDITDEEAIRAKAQDILDTFDIEDGGTIEKVWDMAKYVVAFEKWVKDEHLSMVASHYDGFAQGKAGVLDSMLIPAFSMLIKQGTACAVEGDMKVAMAMSILKTISGTGQLSEMYSIDFNEDICIIGHSGSGDADISDKKPTMKIVPVFHGKTGGGYLTQFYPYTGPVTYLAITQDKDGHFKFVVAEGVNEEGPILSFGDTNMRTRFTCGAREFVNRWSEAGPTHHMAAATGRHIDTILKVAKIFNIPVDIVTR	not soluble
MTANREAIDMARVAAGAAAAKLADDVVVIDVSGQLVITDCFVIASGSNERQVNAIVDEVEEKMRQAGYRPARREGAREGRWTLLDYRDIVVHIQHQDDRNFYALDRLWGDCPVVPVDLSANSAGAQ	not soluble
MGSDKIHHHHHHMHSLQQLKSQLLSYHAGILGEEYVKKSAVFIPLVEKDDGVHVLFEVRAHTLKQQPGEICFPGGRIDPEDASPEEAAIRETSEELGIPSSVIAPITSLDVLVTPFRGIIYPVIGSIPHKNDYPLNQAEVDHVFTVPIDHFISHPPEQYRINVHFEPGAGFPIERIANQSAYQKSTRQITESFYYYQSYVIWGLTAKILRHVITILKPS	not soluble
MGGSVDFERWFKGPAAIYGGIEYQTPYQPLRLKVEYDSNDYSQDFPVTRGNVDMTQHTPWNFGVLYGLGDWGDIKVSYQRGDTLTLGVNLTTNFNDMKAIWRDEPITAYDESSNQSIDEVDWQRVNQQLNGNAGYEDNRIYADDDSVTLVATQTKYRDSDEAHDRASRIFANHVPETISTYRIIETNQSMPVSETLIDAAQYKKVANNEYFDAKVADASQTDEVTYSPSEHSLKSDNLDRWDYSVSPTLSQSIGSAESFYLYAVGINTAGSVWLTDKVQASGSLYFNLFDNYDKFNYITPPDGTSVPRVRTMFRAYVHENPVRMNNLQLTWFEEYGAGFYSQMYAGYLESMFGGIGSEVMYRPLNSNWAFGIDATYIKQRTPGDWFGFYEQDHQEGGDYGRDYTVVSSGVTGFATAYYAPQWSFLKNTLLKVGVGQFLAGDKGTRIDFSKQFDSGVIAGAYASFTDLSAEEFGEGSYTKGFYISIPFDIMTVKPSKNRANFNWQPLTRDGGQMLNKQHDLYELTDERSPWFTRKGLLEHHHHHH	not soluble
MGSDKIHHHHHHLNQPLTPQPIKTMTDKRQAILDTALALFVSQGFHGTSTASIAKQAGVATGTLFHHFPSKEALMESLFLTIKQQFADTLLLNTHKGSDLKLNALQLWQSAIDWSLDNPVKQLFFQQYSMSPMIAAKVRDQAMNSILGFISELIKQGQMEGLIAHYPLELMLENCHGQYLAATRFFIDNPHLGTNTRYRDASFELFWKAMQAD	not soluble
MAHHHHHHMGLEIFEIDTSTPHTGVVIDGTTACREANSGWVTLRAKTPLSAGQCQWAMKVIDQGEGNDGSGLMMGLLPRLNSQQEVAMGSKYISELGGWCLSRAGDSYGCWKCDKMPFSTGCVVEFDWDAASRTLYIVSGKRKASGHIPNVSEADVVYPAFSMFYLNQKLAFV	soluble
SNAMSQKLYNMKFAAVYLALIAKVERKGGKAESVHQVTSWLTGYEVSDVLACLDRDVTYGDFFRQAPYYVPERIAITGKICGVRIEEIDDPLMQEIRRLDKLVDWLAKGKTSQQVLEKYEKHK	soluble
MSLDYNNITEALQAFRTEKAYRHAPLRSCFFDMDGVLFDSMPAHARSWVEAAGECGIAAEPLDFYRWEGQKGSDTIKILFERGYGRLPTEKEIADMYGRKSQLFALYNSGNVIDDAPALVSDVCDRGLRIMLVTGSSQTDILQRLQRSYGDNFSPANMVTGADVHRGKPHPEPYLKALECVGMSPSEAFVVENAPLGVRAAVDAGIFTIAVNTGCLPDADLWDAGASLVLPSMAVLRSLLGELLTESLSSSAEGHHHHHH	soluble
MGSDKIHHHHHHKEKKADTYVTKVTDLTGEEEQVLKLEYDRDGKIIKYGDTPVRYEGDQITIGQMNCLNTGNKLCNVTFQIGKGKARESRARCMLKVGEEVYEADKQTVYDYKGDTIFINSDYRATSDYRFLKKVQGKYVFDQLGRLKEVMTVFTEANDSVSSCHTYYNYDNNINYQANLNLQAYVIDYDGVDSFFYFLLNLGQLRNRTALPNDIGYCMNHGLSTYNVHANYRLDDENPVRIEVLYNYTKLLSRIDLSYNPLN	not soluble
MSEITIGVLSLQGDFEPHINHFIKLQIPSLNIIQVRNVHDLGLCDGLVIPGGESTTVRRCCAYENDTLYNALVHFIHVLKKPIWGTCAGCILLSKNVENIKLYSNFGNKFSFGGLDITICRNFYGSQNDSFICSLNIISDSSAFKKDLTAACIRAPYIREILSDEVKVLATFSHESYGPNIIAAVEQNNCLGTVFHPELLPHTAFQQYFYEKVKNYKYSLEHHHHHH	soluble
MGSDKIHHHHHHMGVRQKKIAAHDLEIGMFVSDLDRPWHQTPFPIQGFYLRSENDLKAVVSHCKWVMIDVAETREEITLGSDKVRPFARRSSARSGGREELQLAPLSIREPVVYKNDVPLRKELKASRKLLNDAELALSRMFETIRDDQMPDLRPAAEVTRRMVESVIRQPNALLWLSRTRQYDDFVYRHALNTAVWALVCGRQLGLNEGLLNHLGVGCLLSQVGKTALPKEMLAREHQLSTEEYATYRTYVERGCQMLEGAGLSRAVMSVVQGHRERHNGSGFPQGIRGDRIPLLAKVAGIAEFFESLIAPRDDQDPMTPAKAVSLLYDMRNIEFQEDLVEAFIQGVGVYPTGTLVELSDGQRGIVVSHSPGRRLWPSVMVMQDAEHRPLKSARIVDLARHIESRAASELLTVRECLPHGTDGLDPAGFDVTGAESRWSLGKLINR	not soluble
MAYRDQPLGELALSIPRASALFRKYDMDYCCGGKQTLARAAARKELDVEVIEAELAKLAEQPIEKDWRSAPLAEIIDHIIVRYHDRHREQLPELILQATKVERVHADKPSVPKGLTKYLTMLHEELSSHMMKEEQILFPMIKQGMGSQAMGPISVMESEHDEAGELLEVIKHTTNNVTPPPEACTTWKAMYNGINELIDDLMDHISLENNVLFPRALAGE	not soluble
MGSDKIHHHHHHMPFDQGGIKMKPLLQTVDLKKYFPQGKRILKAVDGISIEIKEGETLGLVGESGCGKSTLGRTILKLLRPDGGKIFFEGKDITNLNDKEMKPYRKKMQIIFQDPLGSLNPQMTVGRIIEDPLIIHKIGTKKERRKRVEELLDMVGIGREFINSFPHEFSGGQQQRIGIARALALNPKFIVCDEPVSALDVSIQAQIIDLLEEIQQKMGISYLFIAHNLAVVEHISHKVAVMYLGKIVEYGDVDKIFLNPIHPYTRALLKSVPKIPWDGQKQRFYSLKGELPSPIDLPKGCRFQTRCTEKKAICFEKEPELTEVEKNHFVSCHLVRSYRG	not soluble
MAEHRGGSGNFAEDREKASDAGRKGGQHSGGNFKNDPQRASEAGKKGGQQSGGNKSGKS	soluble
MGLFLEDLAVGDRFDSARHRVEAAAIKAFAGEFDPQPFHLDEEAARHSLFGGLAASGWHTAAITMRLLVTSGLPLAQGIIGAGTELSWPNPTRPGDELHVETTVLAITPSKSRPDRAIVTCQSDTLNQRGEVVQRSTAKVVVFRRPLEHHHHHH	soluble
SDLQTRFRPPGAEISIIGLSASLAELVPPSNIENAPQIPRGEDGFFERVGNATREMLVYVGSVVRFIKECVLVFKLGINRRKNVNWTTVSNIATRAGADAVP	not soluble
MGSSHHHHHHMTYEYILVRYGEMTTKGKNRSKFVSTLKDNVKFKLKKFPNIKIDATHDRMYIQLNGEDHEAVSERLKDVFGIHKFNLAMKVPSELEDIKKGALAAFLQVKGDVKTFKITVHRSYKHFPMRTMELLPEIGGHILENTEDITVDVHNPDVNVRVEIRSGYSYIMCDERMGAGGLPVGVGGKVMVLLSGGIDSPVAAYLTMKRGVSVEAVHFHSPPFTSERAKQKVIDLAQELTKYCKRVTLHLVPFTEVQKTINKEIPSSYSMTVMRRMMMRITERIAEERNALAITTGESLGQVASQTLDSMHTINEVTNYPVIRPLITMDKLEIIKIAEEIGTYDISIRPYEDCCTVFTPASPATKPKREKANRFEAKYDFTPLIDEAVANKETMVLQTVEVVAEEEKFEELF	soluble
TAPTLAEEVKQQSDGSVIIEGSANLRDLNKLFNWHLPINEVRTFNGLILEHLEKIPIEGTQFRLNQLNITVLEVADNMVKKVKVELIE	soluble
MFSRVRVSAPSHVHAGNYDIEGSIGRLYGTVGLALGEPRLTLEASPSHSVEVEGGSRRREAEDLARLYLDKVGSRGCRLEGVKIRIYEEIPAHVGLGSTTALALSIGSSIYRICGLEPLDLRELAVTAGRSLVSALGLYSFEQGGLIVDGGFVRGERRPPPLVFRAHVPGSVKVVVALPERPIAKILDIKRREDELLARMPPMDPSMAGWASRVVLLGIMANAAEGRWGEAARWMGEFNRRLGEYWAGEQGGIYCCSEVEEIVRAMVDAGAWSGLQSSWGPTVYGLTPARRAASVLEAARRAVERVGGGKVWVTSVDNVGAVISSF	not soluble
MSEKYIVTWDMLQIHARKLASRLMPSEQWKGIIAVSRGGLVPGALLARELGIRHVDTVAISSYDHDNQRELKVLKRAEGDGEGFIVIDDLVDTGGTAVAIREMYPKAHFVTIFAKPAGRPLVDDYVVDIPQDTWIEQPWDMGVVFVPPISGR	soluble
MGDLIAITYHSNALQSERQMYVWTPPGYTGMGEPLPVLYFYHGFGDTGRSAIDQGRIPQIMDNLLAEGKIKPMLVVIPDTETDAKGIIPEDFVPQERRKVFYPLNAKAADRELMNDIIPLISKRFSVRKDADGRALAGLSQGGYQALVSGMNHLESFGWLATFSGVTTTTVPDEGVAARLNDPAAINQQLRNFTVVVGDKDVVTGKDIAGLKTELEQKKIKFDYQEYPGLNHEMDVWRPAYAAFVQKFKIRHLEHHHHHH	not soluble
MNVSSSNEDTPNAPDMLSWCVHTQDNHPLPLPELKAKLLALGIDADTYALTTGLSMELEPTTLADAGYDRYQRPLLLTVDAARAWHAMRQAAVGDGIVLDAISGYRSYAYQFGILERKLAQGKTLQEILTVNAAPGFSEHHSGEALDIGMPGESPVEESFEGSSAFAWLHRHAGRFGFHLSYPRNNPHGIVYEPWHWRWRAR	not soluble
